{"source": "patent US11826400B2", "about": "“Neuregulin based compositions and uses thereof for preventing, treating or delaying the myocardial ischemia-reperfusion injury” (ZENSUN (SHANGHAI) SCIENCE & TECHNOLOGY LIMITED, priority 2010, dated 2023)", "system": "myocardial ischemia reperfusion in rat", "test": "Therapeutic effect on myocardial ischemia reperfusion in rat (coronary ligation 45 min, reperfusion 2 h, TCC staining of heart sections)", "type": "in vivo, Wistar rats", "settings": "P<0.05", "procedure": "Wistar rats (male, 200˜240 g) were divided into groups and administered with different dosages of rhNRG-1, placebo or rhThymosin-β4 (as shown in Table 1) after anaesthetized with intra-abdominal injection of 20% urethane (5 ml/kg). Thirty minutes after the drug started to be given to the rats, the anterior descending limb of the left coronary artery was ligated for 45 minutes to cause partial myocardium turned white obviously in the ligation area. After that the ligation thread was loosen to keep coronary blood flow for 2 hours and then take out the heart rapidly and wash vascular fat away with normal saline, and then freeze the heart in −30° C. for one hour.\nCut the heart parallelly from apex to base along coronary sulcus to myocardium sections with the thickness of 1 mm, and then put them into TCC dye liquor for 20 min in 37° C. in a shaker. After staining extra dye was washed immediately with water, and then the sections were put into 4% formalin for one hour. Photo and analyze the total size and the infarction size of were analyzed with Image Analysis Software. Infarction size ratio equals to the ratio of the infarction size and the total size of the myocardium section."}
{"molecule": "rhNRG-1: produced by Zensun (Shanghai) Science & Technology Ltd, having the amino acids of SEQ ID NO:1 (177-237 residues of NRG-1β2 isoform) (protein, listed as Homo sapiens) SHLVKCAEKEKTFCVNGGECFMVKDLSNPSRYLCKCPNEFTGDRCQNYVMASFYKAEELYQ", "values": [{"measurement": "Infarction size compared with Group A (placebo)", "setting": "Group B, 10 μg/kg/h continuous infusion", "value": "significantly smaller than that of Group A"}, {"measurement": "Infarction size compared with Group A (placebo)", "setting": "Group C, 30 μg/kg/h continuous infusion", "value": "significantly smaller than that of Group A"}]}
